# Experimental data as given in US20220177549A1.
# Target: porcine FcRn complex (porcine) (UniProt Q07717)
# Assay: SPR (Biacore 8K+), pH 5.9, 25 C; FcRn captured by anti-His, IgG as analyte; 1:1 kinetic model
# Chain of porcine FcRn complex (porcine) (main, as listed by the source, chain 1 of 2): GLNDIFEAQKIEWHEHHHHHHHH
# Chain of porcine FcRn complex (porcine) (Q07717 other isoform, or with tags, fused parts or gaps, chain 2 of 2): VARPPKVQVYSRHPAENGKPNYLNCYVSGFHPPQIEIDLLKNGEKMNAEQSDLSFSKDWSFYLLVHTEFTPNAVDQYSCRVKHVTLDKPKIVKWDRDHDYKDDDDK
Binder,Fold increase over wild-type KD [fold],Kd [nM]
"Porcine Q309V (antibody, part only; not given: variable domains, light chain, IgG1a, not shown: another chain or arm of the molecule) Fc: GCEVAGPSVFIFPPKPKDTLMISQTPEVTCVVVDVSKEHAEVQFSWYVDGVEVHTAETRPKEEQFNSTYRVVSVLPIVHQDWLKGKEFKCKVNNVDLPAPITRTISKAIGQSREPQVYTLPPPAEELSRSKVTVTCLVIGFYPPDIHVEWKSNGQPEPEGNYRTTPPQQDVDGTFFLYSKLAVDKARWDHGETFECAVMHEALHNHYTQKSISKTQGK",9.3,34.1
"Porcine N434Y (antibody, part only; not given: variable domains and light chain, IgG1a, not shown: another chain or arm of the molecule) Fc: GCEVAGPSVFIFPPKPKDTLMISQTPEVTCVVVDVSKEHAEVQFSWYVDGVEVHTAETRPKEEQFNSTYRVVSVLPIQHQDWLKGKEFKCKVNNVDLPAPITRTISKAIGQSREPQVYTLPPPAEELSRSKVTVTCLVIGFYPPDIHVEWKSNGQPEPEGNYRTTPPQQDVDGTFFLYSKLAVDKARWDHGETFECAVMHEALHYHYTQKSISKTQGK",40,7.93
"Porcine M428Y (antibody, part only; not given: variable domains and light chain, IgG1a, not shown: another chain or arm of the molecule) Fc: GCEVAGPSVFIFPPKPKDTLMISQTPEVTCVVVDVSKEHAEVQFSWYVDGVEVHTAETRPKEEQFNSTYRVVSVLPIQHQDWLKGKEFKCKVNNVDLPAPITRTISKAIGQSREPQVYTLPPPAEELSRSKVTVTCLVIGFYPPDIHVEWKSNGQPEPEGNYRTTPPQQDVDGTFFLYSKLAVDKARWDHGETFECAVYHEALHNHYTQKSISKTQGK",3.6,86.9
"Porcine Q311V (antibody, part only; not given: variable domains and light chain, IgG1a, not shown: another chain or arm of the molecule) Fc: GCEVAGPSVFIFPPKPKDTLMISQTPEVTCVVVDVSKEHAEVQFSWYVDGVEVHTAETRPKEEQFNSTYRVVSVLPIQHVDWLKGKEFKCKVNNVDLPAPITRTISKAIGQSREPQVYTLPPPAEELSRSKVTVTCLVIGFYPPDIHVEWKSNGQPEPEGNYRTTPPQQDVDGTFFLYSKLAVDKARWDHGETFECAVMHEALHNHYTQKSISKTQGK",4.1,76.4
"Porcine A426Y (antibody, part only; not given: variable domains, light chain, IgG1a, not shown: another chain or arm of the molecule) Fc: GCEVAGPSVFIFPPKPKDTLMISQTPEVTCVVVDVSKEHAEVQFSWYVDGVEVHTAETRPKEEQFNSTYRVVSVLPIQHQDWLKGKEFKCKVNNVDLPAPITRTISKAIGQSREPQVYTLPPPAEELSRSKVTVTCLVIGFYPPDIHVEWKSNGQPEPEGNYRTTPPQQDVDGTFFLYSKLAVDKARWDHGETFECYVMHEALHNHYTQKSISKTQGK",3,105
"Porcine Q309D (antibody, part only; not given: variable domains and light chain, IgG1a, not shown: another chain or arm of the molecule) Fc: GCEVAGPSVFIFPPKPKDTLMISQTPEVTCVVVDVSKEHAEVQFSWYVDGVEVHTAETRPKEEQFNSTYRVVSVLPIDHQDWLKGKEFKCKVNNVDLPAPITRTISKAIGQSREPQVYTLPPPAEELSRSKVTVTCLVIGFYPPDIHVEWKSNGQPEPEGNYRTTPPQQDVDGTFFLYSKLAVDKARWDHGETFECAVMHEALHNHYTQKSISKTQGK",3.4,93.6

# Results, then the binder that gave them:
Fold increase over wild-type KD [fold],Kd [nM],Binder
3.3,96.1,"Porcine T286E (antibody, part only; not given: variable domains and light chain, IgG1a, not shown: another chain or arm of the molecule) Fc: GCEVAGPSVFIFPPKPKDTLMISQTPEVTCVVVDVSKEHAEVQFSWYVDGVEVHEAETRPKEEQFNSTYRVVSVLPIQHQDWLKGKEFKCKVNNVDLPAPITRTISKAIGQSREPQVYTLPPPAEELSRSKVTVTCLVIGFYPPDIHVEWKSNGQPEPEGNYRTTPPQQDVDGTFFLYSKLAVDKARWDHGETFECAVMHEALHNHYTQKSISKTQGK"
3.3,97.2,"Porcine M252Y (antibody, part only; not given: variable domains and light chain, IgG1a, not shown: another chain or arm of the molecule) Fc: GCEVAGPSVFIFPPKPKDTLYISQTPEVTCVVVDVSKEHAEVQFSWYVDGVEVHTAETRPKEEQFNSTYRVVSVLPIQHQDWLKGKEFKCKVNNVDLPAPITRTISKAIGQSREPQVYTLPPPAEELSRSKVTVTCLVIGFYPPDIHVEWKSNGQPEPEGNYRTTPPQQDVDGTFFLYSKLAVDKARWDHGETFECAVMHEALHNHYTQKSISKTQGK"

# Target: equine FcRn complex (equine) (UniProt F6XZ61)
# Assay: as above
# Chain of equine FcRn complex (equine) (chain, as listed by the source, chain 1 of 2): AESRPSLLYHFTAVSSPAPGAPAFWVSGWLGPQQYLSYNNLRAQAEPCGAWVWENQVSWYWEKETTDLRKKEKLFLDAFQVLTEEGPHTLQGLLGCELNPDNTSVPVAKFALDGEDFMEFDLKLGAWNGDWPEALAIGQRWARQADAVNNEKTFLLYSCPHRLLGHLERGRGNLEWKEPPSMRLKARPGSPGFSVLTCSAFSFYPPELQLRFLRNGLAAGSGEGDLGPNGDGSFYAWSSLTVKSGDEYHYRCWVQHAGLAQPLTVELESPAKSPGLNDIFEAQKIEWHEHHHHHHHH
# Chain of equine FcRn complex (equine) (P30441 other isoform, or with tags, fused parts or gaps, chain 2 of 2): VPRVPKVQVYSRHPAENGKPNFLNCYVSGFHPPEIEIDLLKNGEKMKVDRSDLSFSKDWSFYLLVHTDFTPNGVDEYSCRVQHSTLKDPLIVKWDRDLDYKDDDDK
Binder,Fold increase over wild-type KD [fold],Kd [nM]
"Equine Q311V (antibody, part only; not given: variable domains and light chain, IgG1, not shown: another chain or arm of the molecule) Fc: APELLGGPSVFIFPPNPKDTLMITRTPEVTCVVVDVSQENPDVKFNWYMDGVEVRTATTRPKEEQFNSTYRVVSVLRIQHVDWLSGKEFKCKVNNQALPQPIERTITKTKGRSQEPQVYVLAPHPDELSKSKVSVTCLVKDFYPPEINIEWQSNGQPELETKYSTTQAQQDSDGSYFLYSKLSVDRNRWQQGTTFTCGVMHEALHNHYTQKNVSKNPGK",4,35.7
"Equine M252Y (antibody, part only; not given: variable domains, light chain, IgG1, not shown: another chain or arm of the molecule) Fc: APELLGGPSVFIFPPNPKDTLYITRTPEVTCVVVDVSQENPDVKFNWYMDGVEVRTATTRPKEEQFNSTYRVVSVLRIQHQDWLSGKEFKCKVNNQALPQPIERTITKTKGRSQEPQVYVLAPHPDELSKSKVSVTCLVKDFYPPEINIEWQSNGQPELETKYSTTQAQQDSDGSYFLYSKLSVDRNRWQQGTTFTCGVMHEALHNHYTQKNVSKNPGK",2,71.4
"Equine N434Y (antibody, part only; not given: variable domains and light chain, IgG1, not shown: another chain or arm of the molecule) Fc: APELLGGPSVFIFPPNPKDTLMITRTPEVTCVVVDVSQENPDVKFNWYMDGVEVRTATTRPKEEQFNSTYRVVSVLRIQHQDWLSGKEFKCKVNNQALPQPIERTITKTKGRSQEPQVYVLAPHPDELSKSKVSVTCLVKDFYPPEINIEWQSNGQPELETKYSTTQAQQDSDGSYFLYSKLSVDRNRWQQGTTFTCGVMHEALHYHYTQKNVSKNPGK",61,2.35
"Equine M428Y (antibody, part only; not given: variable domains, light chain, IgG1, not shown: another chain or arm of the molecule) Fc: APELLGGPSVFIFPPNPKDTLMITRTPEVTCVVVDVSQENPDVKFNWYMDGVEVRTATTRPKEEQFNSTYRVVSVLRIQHQDWLSGKEFKCKVNNQALPQPIERTITKTKGRSQEPQVYVLAPHPDELSKSKVSVTCLVKDFYPPEINIEWQSNGQPELETKYSTTQAQQDSDGSYFLYSKLSVDRNRWQQGTTFTCGVYHEALHNHYTQKNVSKNPGK",0.9,151

# More lines, now with the values ahead:
Fold increase over wild-type KD [fold],Kd [nM],Binder
7.2,20.2,"Equine Q309V (antibody, part only; not given: variable domains, light chain, IgG1, not shown: another chain or arm of the molecule) Fc: APELLGGPSVFIFPPNPKDTLMITRTPEVTCVVVDVSQENPDVKFNWYMDGVEVRTATTRPKEEQFNSTYRVVSVLRIVHQDWLSGKEFKCKVNNQALPQPIERTITKTKGRSQEPQVYVLAPHPDELSKSKVSVTCLVKDFYPPEINIEWQSNGQPELETKYSTTQAQQDSDGSYFLYSKLSVDRNRWQQGTTFTCGVMHEALHNHYTQKNVSKNPGK"
0.9,156,"Equine Y436H (antibody, part only; not given: variable domains and light chain, IgG1, not shown: another chain or arm of the molecule) Fc: APELLGGPSVFIFPPNPKDTLMITRTPEVTCVVVDVSQENPDVKFNWYMDGVEVRTATTRPKEEQFNSTYRVVSVLRIQHQDWLSGKEFKCKVNNQALPQPIERTITKTKGRSQEPQVYVLAPHPDELSKSKVSVTCLVKDFYPPEINIEWQSNGQPELETKYSTTQAQQDSDGSYFLYSKLSVDRNRWQQGTTFTCGVMHEALHNHHTQKNVSKNPGK"
3,48,"Equine T286E (antibody, part only; not given: variable domains and light chain, IgG1, not shown: another chain or arm of the molecule) Fc: APELLGGPSVFIFPPNPKDTLMITRTPEVTCVVVDVSQENPDVKFNWYMDGVEVREATTRPKEEQFNSTYRVVSVLRIQHQDWLSGKEFKCKVNNQALPQPIERTITKTKGRSQEPQVYVLAPHPDELSKSKVSVTCLVKDFYPPEINIEWQSNGQPELETKYSTTQAQQDSDGSYFLYSKLSVDRNRWQQGTTFTCGVMHEALHNHYTQKNVSKNPGK"
1,144,"Equine Q309D (antibody, part only; not given: variable domains and light chain, IgG1, not shown: another chain or arm of the molecule) Fc: APELLGGPSVFIFPPNPKDTLMITRTPEVTCVVVDVSQENPDVKFNWYMDGVEVRTATTRPKEEQFNSTYRVVSVLRIDHQDWLSGKEFKCKVNNQALPQPIERTITKTKGRSQEPQVYVLAPHPDELSKSKVSVTCLVKDFYPPEINIEWQSNGQPELETKYSTTQAQQDSDGSYFLYSKLSVDRNRWQQGTTFTCGVMHEALHNHYTQKNVSKNPGK"

# Target: bovine FcRn complex (bovine) (UniProt F6R592)
# Assay: as above
# Chain of bovine FcRn complex (bovine) (chain, as listed by the source, chain 1 of 2): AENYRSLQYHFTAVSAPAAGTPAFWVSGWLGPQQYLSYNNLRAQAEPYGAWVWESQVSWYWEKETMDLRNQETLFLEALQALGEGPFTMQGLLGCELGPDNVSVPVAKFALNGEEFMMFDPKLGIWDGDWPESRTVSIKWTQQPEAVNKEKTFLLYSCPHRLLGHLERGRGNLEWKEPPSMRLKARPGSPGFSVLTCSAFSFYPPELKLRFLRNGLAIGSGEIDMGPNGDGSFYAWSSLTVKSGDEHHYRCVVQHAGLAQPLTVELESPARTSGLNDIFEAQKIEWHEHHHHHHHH
# Chain of bovine FcRn complex (bovine) (P01888 other isoform, or with tags, fused parts or gaps, chain 2 of 2): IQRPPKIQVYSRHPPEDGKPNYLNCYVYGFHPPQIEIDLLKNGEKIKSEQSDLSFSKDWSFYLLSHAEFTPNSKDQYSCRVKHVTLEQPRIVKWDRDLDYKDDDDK
Fold increase over wild-type KD [fold],Kd [nM],Binder
1,505,"Bovine wild-type (antibody, part only; not given: variable domains, light chain, IgG1, not shown: another chain or arm of the molecule) Fc: PPELPGGPSVFIFPPKPKDTLTISGTPEVTCVVVDVGHDDPEVKFSWFVDNVEVNTATTKPREEQFNSTYRVVSALRIQHQDWTGGKEFKCKVHNEGLPAPIVRTISRTKGPAREPQVYVLAPPQEELSKSTVSLTCMVTSFYPDYIAVEWQRNGQPESEDKYGTTPPQLDADSSYFLYSKLRVDRNSWQEGDTYTCVVMHEALHNHYTQKSTSKSA"
2.8,–,"Bovine Q311V (antibody, part only; not given: variable domains and light chain, IgG1, not shown: another chain or arm of the molecule) Fc: PPELPGGPSVFIFPPKPKDTLTISGTPEVTCVVVDVGHDDPEVKFSWFVDNVEVNTATTKPREEQFNSTYRVVSALRIQHVDWTGGKEFKCKVHNEGLPAPIVRTISRTKGPAREPQVYVLAPPQEELSKSTVSLTCMVTSFYPDYIAVEWQRNGQPESEDKYGTTPPQLDADSSYFLYSKLRVDRNSWQEGDTYTCVVMHEALHNHYTQKSTSKSA"
7.1,71.4,"Bovine T252Y (antibody, part only; not given: variable domains and light chain, IgG1, not shown: another chain or arm of the molecule) Fc: PPELPGGPSVFIFPPKPKDTLYISGTPEVTCVVVDVGHDDPEVKFSWFVDNVEVNTATTKPREEQFNSTYRVVSALRIQHQDWTGGKEFKCKVHNEGLPAPIVRTISRTKGPAREPQVYVLAPPQEELSKSTVSLTCMVTSFYPDYIAVEWQRNGQPESEDKYGTTPPQLDADSSYFLYSKLRVDRNSWQEGDTYTCVVMHEALHNHYTQKSTSKSA"
3.9,129,"Bovine Q309V (antibody, part only; not given: variable domains, light chain, IgG1, not shown: another chain or arm of the molecule) Fc: PPELPGGPSVFIFPPKPKDTLTISGTPEVTCVVVDVGHDDPEVKFSWFVDNVEVNTATTKPREEQFNSTYRVVSALRIVHQDWTGGKEFKCKVHNEGLPAPIVRTISRTKGPAREPQVYVLAPPQEELSKSTVSLTCMVTSFYPDYIAVEWQRNGQPESEDKYGTTPPQLDADSSYFLYSKLRVDRNSWQEGDTYTCVVMHEALHNHYTQKSTSKSA"
